Measurements as given in the supplement of paper PMC9112550, “Optimization of the antimicrobial peptide Bac7 by deep mutational scanning” (BMC Biology, 2022).

Tested on: Escherichia coli TOP10
Test: shrunken log2 fold change of peptide-encoding DNA abundance (4.5 h post-induction vs induction); higher = less antimicrobial activity (less host growth inhibition)
Conditions: time post-induction: 4.5 h; library: site-saturation at positions 5, 18, 19, 20
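Also: peptides expressed intracellularly from a pBAD plasmid library in pooled LB shake-flask culture, induced with 0.3% L-arabinose, DNA abundance read by NGS, three biological replicates, DESeq2 with apeglm shrinkage.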

Sequence | shrunken log2 fold change
RRIRCRPPRLPRPRPRPPCTPRP | -0.0939
RRIRNRPPRLPRPRPRPGGGPRP | 0.723
RRIRRRPPRLPRPRPRPSAYPRP | 0.104
RRIRTRPPRLPRPRPRPFAFPRP | 0.0192
RRIRNRPPRLPRPRPRPERVPRP | 0.11
RRIRWRPPRLPRPRPRPFAEPRP | 0.801
RRIRFRPPRLPRPRPRPENNPRP | -0.285
RRIRWRPPRLPRPRPRPLNVPRP | -0.0654
RRIRGRPPRLPRPRPRPTPPPRP | 1.06
RRIRNRPPRLPRPRPRPGMKPRP | -0.272
RRIRWRPPRLPRPRPRPLLCPRP | 0.15
RRIRARPPRLPRPRPRPSYTPRP | 1.56
RRIRTRPPRLPRPRPRPEHNPRP | -0.353
RRIRCRPPRLPRPRPRPKKLPRP | 0.063
RRIRMRPPRLPRPRPRPVLPPRP | -0.0643
RRIRLRPPRLPRPRPRPSARPRP | 0.0346
RRIRGRPPRLPRPRPRPQYTPRP | -0.0367
RRIRHRPPRLPRPRPRPMEAPRP | -0.0935
RRIRMRPPRLPRPRPRPNPWPRP | 0.123
RRIRPRPPRLPRPRPRPYTQPRP | -0.608
RRIRCRPPRLPRPRPRPKWIPRP | -0.366

Sequence | shrunken log2 fold change
RRIRQRPPRLPRPRPRPYVMPRP | -0.108
RRIRHRPPRLPRPRPRPQPRPRP | 0.282
RRIRMRPPRLPRPRPRPKNGPRP | 0.0732
RRIRKRPPRLPRPRPRPYLCPRP | -0.0593
RRIRLRPPRLPRPRPRPHLCPRP | -0.355
RRIRFRPPRLPRPRPRPDIHPRP | -0.268
RRIRDRPPRLPRPRPRPIIEPRP | 0.479
RRIRERPPRLPRPRPRPGFNPRP | 0.0108
RRIRWRPPRLPRPRPRPDFEPRP | 0.385
RRIRLRPPRLPRPRPRPGCSPRP | 0.0547
RRIRKRPPRLPRPRPRPLCRPRP | 0.392
RRIRIRPPRLPRPRPRPCGYPRP | -0.01
RRIRRRPPRLPRPRPRPNWPPRP | 0.118
RRIRPRPPRLPRPRPRPHKFPRP | -0.547
RRIRQRPPRLPRPRPRPIFMPRP | -0.00126
RRIRMRPPRLPRPRPRPGCGPRP | 1.04
RRIRQRPPRLPRPRPRPPWWPRP | 0.498
RRIRPRPPRLPRPRPRPLKQPRP | 0.0902
RRIRLRPPRLPRPRPRPGWDPRP | 0.507
RRIRHRPPRLPRPRPRPVVIPRP | -0.759
RRIRQRPPRLPRPRPRPGIQPRP | -0.056

Sequence | shrunken log2 fold change
RRIRHRPPRLPRPRPRPEMQPRP | -0.000952
RRIRQRPPRLPRPRPRPLPQPRP | 0.337
RRIRDRPPRLPRPRPRPFMKPRP | -0.0698
RRIRNRPPRLPRPRPRPLCGPRP | -0.13
RRIRLRPPRLPRPRPRPGIVPRP | -0.16
RRIRRRPPRLPRPRPRPLVVPRP | 0.312
RRIRLRPPRLPRPRPRPKYAPRP | 0.0149
RRIRHRPPRLPRPRPRPQVYPRP | -0.21
RRIRHRPPRLPRPRPRPFPRPRP | 0.0685
RRIRFRPPRLPRPRPRPRELPRP | 0.263
RRIRVRPPRLPRPRPRPAEQPRP | 0.247
RRIRLRPPRLPRPRPRPTAAPRP | 0.897
RRIRKRPPRLPRPRPRPRKGPRP | -0.0408
RRIRDRPPRLPRPRPRPEWYPRP | 0.0233
RRIRSRPPRLPRPRPRPCAMPRP | -0.173
RRIRNRPPRLPRPRPRPCGWPRP | 0.0822
RRIRGRPPRLPRPRPRPCKSPRP | -0.00288
RRIRPRPPRLPRPRPRPPGWPRP | 0.484
RRIRKRPPRLPRPRPRPRFHPRP | 0.077
RRIRWRPPRLPRPRPRPHDPPRP | 0.23
